According to patent US20200299347A1 (Merck KGaA, published 2020):
One block for each binder: values may come before it.

What was measured:
[1] = target: FGFR3; test: cell-based or functional assay
[2] = target: NGF; test: cell-based or functional assay
NGF, sequence (P01138 122-241): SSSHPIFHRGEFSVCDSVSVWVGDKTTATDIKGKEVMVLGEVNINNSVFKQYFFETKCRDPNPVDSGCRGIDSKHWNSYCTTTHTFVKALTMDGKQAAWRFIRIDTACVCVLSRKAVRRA

FGF18 EC50 (nM), BaF3/FGFR3 assay; construct from expiCHO-S [1]: 0.05 nM
anti-NGF IC50 (nM), U2OS TrkA_p75 assay; construct from expiCHO-S [2]: 0.98 nM
B1: FGF18 SEED (HOF3) (other)
light: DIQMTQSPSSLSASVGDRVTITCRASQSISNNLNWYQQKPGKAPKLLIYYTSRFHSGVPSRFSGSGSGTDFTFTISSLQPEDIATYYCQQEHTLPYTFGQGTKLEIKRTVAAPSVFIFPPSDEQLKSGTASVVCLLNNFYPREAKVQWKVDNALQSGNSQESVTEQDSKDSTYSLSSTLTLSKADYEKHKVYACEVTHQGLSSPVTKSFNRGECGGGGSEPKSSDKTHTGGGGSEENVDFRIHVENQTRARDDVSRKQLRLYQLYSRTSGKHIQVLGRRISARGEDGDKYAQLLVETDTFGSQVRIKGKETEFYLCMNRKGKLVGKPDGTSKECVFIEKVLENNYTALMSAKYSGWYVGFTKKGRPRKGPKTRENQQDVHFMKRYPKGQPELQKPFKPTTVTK
heavy: QVQLQESGPGLVKPSETLSLTCTVSGFSLIGYDLNWIRQPPGKGLEWIGIIWGDGTTDYNSAVKSRVTISKDTSKNQFSLKLSSVTAADTAVYYCARGGYWYATSYYFDYWGQGTLVTVSSASTKGPSVFPLAPSSKSTSGGTAALGCLVKDYFPEPVTVSWNSGALTSGVHTFPAVLQSSGLYSLSSVVTVPSSSLGTQTYICNVNHKPSNTKVDKKVEPKSC

FGF18 EC50 (nM), BaF3/FGFR3 assay; construct from HEK293 [1]: 0.06 nM
anti-NGF IC50 (nM), U2OS TrkA_p75 assay; construct from HEK293 [2]: 0.62 nM
B3: FGF18_scFv fasinumab (LH) (other)
chain: EENVDFRIHVENQTRARDDVSRKQLRLYQLYSRTSGKHIQVLGRRISARGEDGDKYAQLLVETDTFGSQVRIKGKETEFYLCMNRKGKLVGKPDGTSKECVFIEKVLENNYTALMSAKYSGWYVGFTKKGRPRKGPKTRENQQDVHFMKRYPKGQPELQKPFKYTTVTKGGGGSGGGGSGGGGSDIQMTQSPSSLSASAGDRVTITCRASQAIRNDLGWYQQKPGKAPKRLIYAAFNLQSGVPSRFSGSGSGTEFTLTISSLQPEDLASYYCQQYNRYPWTFGQGTKVEIKGGGGSGGGGSGGGGSQVQLVQSGAEVKKPGASVKVSCKVSGFTLTELSIHWVRQAPGKGLEWMGGFDPEDGETIYAQKFQGRVTMTEDTSTDTAYMELTSLRSEDTAVYYCSTIFGVVTNFDNWGQGTLVTVSS

FGF18 EC50 (nM), BaF3/FGFR3 assay; construct from expiCHO-S [1]: 0.02 nM
anti-NGF IC50 (nM), U2OS TrkA_p75 assay; construct from expiCHO-S [2]: 0.89 nM
B4: FGF18 SEED (HO110) (other)
chain: EPKSSDKTHTCPPCPAPEAAGGPSVFLFPPKPKDTLMISRTPEVTCVVVDVSHEDPEVKFNWYVDGVEVHNAKTKPREEQYNSTYRVVSVLTVLHQDWLNGKEYKCKVSNKALGAPIEKTISKAKGQPREPQVYTLPPPSEELALNELVTLTCLVKGFYPSDIAVEWLQGSQELPREKYLTWAPVLDSDGSFFLYSILRVAAEDWKKGDTFSCSVMHEALHNRFTQKSLDRSPGKEPKSSDKTHTEENVDFRIHVENQTRARDDVSRKQLRLYQLYSRTSGKHIQVLGRRISARGEDGDKYAQLLVETDTFGSQVRIKGKETEFYLCMNRKGKLVGKPDGTSKECVFIEKVLENNYTALMSAKYSGWYVGFTKKGRPRKGPKTRENQQDVHFMKRYPKGQPELQKPFKYTTVTK
heavy: QVQLQESGPGLVKPSETLSLTCTVSGFSLIGYDLNWIRQPPGKGLEWIGIIWGDGTTDYNSAVKSRVTISKDTSKNQFSLKLSSVTAADTAVYYCARGGYWYATSYYFDYWGQGTLVTVSSASTKGPSVFPLAPSSKSTSGGTAALGCLVKDYFPEPVTVSWNSGALTSGVHTFPAVLQSSGLYSLSSVVTVPSSSLGTQTYICNVNHKPSNTKVDKKVEPKSCDKTHTCPPCPAPEAAGGPSVFLFPPKPKDTLMISRTPEVTCVVVDVSHEDPEVKFNWYVDGVEVHNAKTKPREEQYNSTYRVVSVLTVLHQDWLNGKEYKCKVSNKALGAPIEKTISKAKGQPREPQVYTLPPPSEELALNELVTLTCLVKGFYPSDIAVEWLQGSQELPREKYLTWAPVLDSDGSFFLYSILRVAAEDWKKGDTFSCSVMHEALHNRFTQKSLDRSPGK
light: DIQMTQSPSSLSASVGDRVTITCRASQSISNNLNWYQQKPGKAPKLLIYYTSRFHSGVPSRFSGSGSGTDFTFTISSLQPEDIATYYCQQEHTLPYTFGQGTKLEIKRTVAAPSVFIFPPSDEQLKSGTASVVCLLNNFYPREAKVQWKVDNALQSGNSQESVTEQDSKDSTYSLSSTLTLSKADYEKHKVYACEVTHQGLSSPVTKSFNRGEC

Continued, binder first:

B2: FGF18_scFv tanezumab (LH) (other)
chain: EENVDFRIHVENQTRARDDVSRKQLRLYQLYSRTSGKHIQVLGRRISARGEDGDKYAQLLVETDTFGSQVRIKGKETEFYLCMNRKGKLVGKPDGTSKECVFIEKVLENNYTALMSAKYSGWYVGFTKKGRPRKGPKTRENQQDVHFMKRYPKGQPELQKPFKYTTVTKGGGGSGGGGSGGGGSDIQMTQSPSSLSASVGDRVTITCRASQSISNNLNWYQQKPGKAPKLLIYYTSRFHSGVPSRFSGSGSGTDFTFTISSLQPEDIATYYCQQEHTLPYTFGQGTKLEIKGGGGSGGGGSGGGGSQVQLQESGPGLVKPSETLSLTCTVSGFSLIGYDLNWIRQPPGKGLEWIGIIWGDGTTDYNSAVKSRVTISKDTSKNQFSLKLSSVTAADTAVYYCARGGYWYATSYYFDYWGQGTLVTVSS
FGF18 EC50 (nM), BaF3/FGFR3 assay; construct from HEK293 [1]: 0.16 nM
anti-NGF IC50 (nM), U2OS TrkA_p75 assay; construct from HEK293 [2]: 0.43 nM

B5: FGF18 SEED (HO113) (other)
chain: EPKSSDKTHTCPPCPAPEAAGGPSVFLFPPKPKDTLMISRTPEVTCVVVDVSHEDPEVKFNWYVDGVEVHNAKTKPREEQYNSTYRVVSVLTVLHQDWLNGKEYKCKVSNKALGAPIEKTISKAKGQPREPQVYTLPPPSEELALNELVTLTCLVKGFYPSDIAVEWLQGSQELPREKYLTWAPVLDSDGSFFLYSILRVAAEDWKKGDTFSCSVMHEALHNRFTQKSLDRSPGKGGGGSEPKSSDKTHTGGGGSEENVDFRIHVENQTRARDDVSRKQLRLYQLYSRTSGKHIQVLGRRISARGEDGDKYAQLLVETDTFGSQVRIKGKETEFYLCMNRKGKLVGKPDGTSKECVFIEKVLENNYTALMSAKYSGWYVGFTKKGRPRKGPKTRENQQDVHFMKRYPKGQPELQKPFKYTTVTKRSRRIRPTHPA
heavy: B4 heavy
light: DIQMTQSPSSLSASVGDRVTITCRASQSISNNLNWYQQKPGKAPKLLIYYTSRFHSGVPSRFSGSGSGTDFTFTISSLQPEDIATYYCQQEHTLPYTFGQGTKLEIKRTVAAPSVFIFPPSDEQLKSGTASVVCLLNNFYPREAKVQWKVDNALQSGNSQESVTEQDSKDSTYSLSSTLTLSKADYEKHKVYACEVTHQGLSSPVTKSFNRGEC
FGF18 EC50 (nM), BaF3/FGFR3 assay; construct from expiCHO-S [1]: 0.1 nM
anti-NGF IC50 (nM), U2OS TrkA_p75 assay; construct from expiCHO-S [2]: 0.95 nM

B6: FGF18 SEED (HO124) (other)
chain: EENVDFRIHVENQTRARDDVSRKQLRLYQLYSRTSGKHIQVLGRRISARGEDGDKYAQLLVETDTFGSQVRIKGKETEFYLCMNRKGKLVGKPDGTSKECVFIEKVLENNYTALMSAKYSGWYVGFTKKGRPRKGPKTRENQQDVHFMKRYPKGQPELQKPFKYTTVTKGGSGGSGSGSEPKSSDKTHTCPPCPAPEAAGGPSVFLFPPKPKDTLMISRTPEVTCVVVDVSHEDPEVKFNWYVDGVEVHNAKTKPREEQYNSTYRVVSVLTVLHQDWLNGKEYKCKVSNKALGAPIEKTISKAKGQPREPQVYTLPPPSEELALNELVTLTCLVKGFYPSDIAVEWLQGSQELPREKYLTWAPVLDSDGSFFLYSILRVAAEDWKKGDTFSCSVMHEALHNRFTQKSLDRSPGK
heavy: QVQLQESGPGLVKPSETLSLTCTVSGFSLIGYDLNWIRQPPGKGLEWIGIIWGDGTTDYNSAVKSRVTISKDTSKNQFSLKLSSVTAADTAVYYCARGGYWYATSYYFDYWGQGTLVTVSSASTKGPSVFPLAPSSKSTSGGTAALGCLVKDYFPEPVTVSWNSGALTSGVHTFPAVLQSSGLYSLSSVVTVPSSSLGTQTYICNVNHKPSNTKVDKKVEPKSCDKTHTCPPCPAPEAAGGPSVFLFPPKPKDTLMISRTPEVTCVVVDVSHEDPEVKFNWYVDGVEVHNAKTKPREEQYNSTYRVVSVLTVLHQDWLNGKEYKCKVSNKALGAPIEKTISKAKGQPFRPEVHLLPPSREEMTKNQVSLTCLARGFYPKDIAVEWESNGQPENNYKTTPSRQEPSQGTTTFAVTSKLTVDKSRWQQGNVFSCSVMHEALHNHYTQKTISLSPGK
light: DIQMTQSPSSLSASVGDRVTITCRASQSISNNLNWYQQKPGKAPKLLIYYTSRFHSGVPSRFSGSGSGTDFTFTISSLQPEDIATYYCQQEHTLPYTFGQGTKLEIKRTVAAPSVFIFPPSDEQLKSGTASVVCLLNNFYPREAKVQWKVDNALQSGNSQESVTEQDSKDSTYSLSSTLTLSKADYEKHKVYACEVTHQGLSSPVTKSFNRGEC
FGF18 EC50 (nM), BaF3/FGFR3 assay; construct from expiCHO-S [1]: 0.07 nM
anti-NGF IC50 (nM), U2OS TrkA_p75 assay; construct from expiCHO-S [2]: 0.89 nM

B7: FGF18 SEED (HO114) (other)
heavy: B6 heavy
chain: EPKSSDKTHTCPPCPAPEAAGGPSVFLFPPKPKDTLMISRTPEVTCVVVDVSHEDPEVKFNWYVDGVEVHNAKTKPREEQYNSTYRVVSVLTVLHQDWLNGKEYKCKVSNKALGAPIEKTISKAKGQPREPQVYTLPPPSEELALNELVTLTCLVKGFYPSDIAVEWLQGSQELPREKYLTWAPVLDSDGSFFLYSILRVAAEDWKKGDTFSCSVMHEALHNRFTQKSLDRSPGK
light: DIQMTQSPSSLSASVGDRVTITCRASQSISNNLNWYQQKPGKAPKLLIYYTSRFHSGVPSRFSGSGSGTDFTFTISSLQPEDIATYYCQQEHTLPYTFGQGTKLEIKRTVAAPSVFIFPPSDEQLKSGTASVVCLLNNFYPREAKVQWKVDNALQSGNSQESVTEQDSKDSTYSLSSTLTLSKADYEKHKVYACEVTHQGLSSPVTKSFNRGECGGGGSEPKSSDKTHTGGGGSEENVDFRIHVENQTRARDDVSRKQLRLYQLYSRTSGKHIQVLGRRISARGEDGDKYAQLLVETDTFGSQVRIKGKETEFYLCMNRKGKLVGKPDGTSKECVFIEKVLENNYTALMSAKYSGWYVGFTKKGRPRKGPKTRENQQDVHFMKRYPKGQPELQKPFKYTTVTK
FGF18 EC50 (nM), BaF3/FGFR3 assay; construct from expiCHO-S [1]: 0.02 nM
anti-NGF IC50 (nM), U2OS TrkA_p75 assay; construct from expiCHO-S [2]: 0.88 nM
